Test results: the supplement of paper PMC11316812
± gives the standard deviation of the averaged measurements.

Tests used:
[1] = system: MCF7; experiment: percentage of EdU-negative (G0-arrested) nuclei per well, 72 h; higher = more G0 arrest; conditions: reference: sequence is the full UniProt precursor, the tested protein was the secreted form or ectodomain
[2] = system: hTERT-HMEC; experiment: as above; conditions: reference: sequence is the full UniProt precursor, the tested protein was the secreted form or ectodomain
[3] = protein concentration 0.03125 µM
[4] = protein concentration 0.3125 µM
[5] = protein concentration 0.0225 µM
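Note: secreted proteins added to cultured cells, EdU pulse at the end, nuclei found by Hoechst imaging, EdU status from nuclear versus surrounding ring intensity ratio, PBS as neutral control.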

Sequence	percentage of EdU-negative [1, 3] [%]	percentage of EdU-negative [1, 4] [%]	percentage of EdU-negative [2, 3] [%]	percentage of EdU-negative [2, 4] [%]	percentage of EdU-negative [1, 5] [%]	percentage of EdU-negative ([1]; protein concentration 0.225 µM) [%]	percentage of EdU-negative [2, 5] [%]	percentage of EdU-negative ([2]; protein concentration 0.225 µM) [%]
MAGPATQSPMKLMALQLLLWHSALWTVQEATPLGPASSLPQSFLLKCLEQVRKIQGDGAALQEKLVSECATYKLCHPEELVLLGHSLGIPWAPLSSCPSQALQLAGCLSQLHSGLFLYQGLLQALEGISPELGPTLDTLQLDVADFATTIWQQMEELGMAPALQPTQGAMPAFASAFQRRAGGVLVASHLQSFLEVSYRVLRHLAQP	25 ± 0.82	27.5 ± 0.74	5.19 ± 0.94	9.86 ± 1.2	–	–	–	–
MAGPLRAPLLLLAILAVALAVSPAAGSSPGKPPRLVGGPMDASVEEEGVRRALDFAVGEYNKASNDMYHSRALQVVRARKQIVAGVNYFLDVELGRTTCTKTQPNLDNCPFHDQPHLKRKAFCSFQIYAVPWQGTMTLSKSTCQDA	26.2 ± 1.3	26.6 ± 2.9	5.05 ± 0.076	5.7 ± 0.21	–	–	–	–
MAGPPRLLLLPLLLALARGLPGALAAQEVQQSPHCTTVPVGASVNITCSTSGGLRGIYLRQLGPQPQDIIYYEDGVVPTTDRRFRGRIDFSGSQDNLTITMHRLQLSDTGTYTCQAITEVNVYGSGTLVLVTEEQSQGWHRCSDAPPRASALPAPPTGSALPDPQTASALPDPPAASALPAALAVISFLLGLGLGVACVLARTQIKKLCSWRDKNSAACVVYEDMSHSRCNTLSSPNQYQ	–	–	–	–	25.1 ± 0.98	24.68 ± 0.088	5.29 ± 0.21	4.88 ± 0.12
MAGPWTFTLLCGLLAATLIQATLSPTAVLILGPKVIKEKLTQELKDHNATSILQQLPLLSAMREKPAGGIPVLGSLVNTVLKHIIWLKVITANILQLQVKPSANDQELLVKIPLDMVAGFNTPLVKTIVEFHMTTEAQATIRMDTSASGPTRLVLSDCATSHGSLRIQLLHKLSFLVNALAKQVMNLLVPSLPNLVKNQLCPVIEASFNGMYADLLQLVKVPISLSIDRLEFDLLYPAIKGDTIQLYLGAKLLDSQGKVTKWFNNSAASLTMPTLDNIPFSLIVSQDVVKAAVAAVLSPEEFMVLLDSVLPESAHRLKSSIGLINEKAADKLGSTQIVKILTQDTPEFFIDQGHAKVAQLIVLEVFPSSEALRPLFTLGIEASSEAQFYTKGDQLILNLNNISSDRIQLMNSGIGWFQPDVLKNIITEIIHSILLPNQNGKLRSGVPVSLVKALGFEAAESSLTKDALVLTPASLWKPSSPVSQ [Q8TDL5]	–	–	–	–	25.5 ± 0.91	30.5 ± 0.65	5.17 ± 0.22	8.84 ± 0.099
MAGRLLGKALAAVSLSLALASVTIRSSRCRGIQAFRNSFSSSWFHLNTNVMSGSNGSKENSHNKARTSPYPGSKVERSQVPNEKVGWLVEWQDYKPVEYTAVSVLAGPRWADPQISESNFSPKFNEKDGHVERKSKNGLYEIENGRPRNPAGRTGLVGRGLLGRWGPNHAADPIITRWKRDSSGNKIMHPVSGKHILQFVAIKRKDCGEWAIPGGMVDPGEKISATLKREFGEEALNSLQKTSAEKREIEEKLHKLFSQDHLVIYKGYVDDPRNTDNAWMETEAVNYHDETGEIMDNLMLEAGDDAGKVKWVDINDKLKLYASHSQFIKLVAEKRDAHWSEDSEADCHAL [Q9BW91]	–	–	–	–	26.4 ± 1.5	26.1 ± 0.32	4.99 ± 0.81	5.67 ± 0.54
MAGSPTCLTLIYILWQLTGSAASGPVKELVGSVGGAVTFPLKSKVKQVDSIVWTFNTTPLVTIQPEGGTIIVTQNRNRERVDFPDGGYSLKLSKLKKNDSGIYYVGIYSSSLQQPSTQEYVLHVYEHLSKPKVTMGLQSNKNGTCVTNLTCCMEHGEEDVIYTWKALGQAANESHNGSILPISWRWGESDMTFICVARNPVSRNFSSPILARKLCEGAADDPDSSMVLLCLLLVPLLLSLFVLGLFLWFLKRERQEEYIEEKKRVDICRETPNICPHSGENTEYDTIPHTNRTILKEDPANTVYSTVEIPKKMENPHSLLTMPDTPRLFAYENVI [Q9NQ25]	–	–	–	–	27.18 ± 0.048	27.7 ± 1.3	5 ± 0.45	6.3 ± 0.74
MAHRPPSPALASVLLALLLSGAARAAEIVGGHEAQPHSRPYMASLQMRGNPGSHFCGGTLIHPSFVLTAAHCLRDIPQRLVNVVLGAHNVRTQEPTQQHFSVAQVFLNNYDAENKLNDVLLIQLSSPANLSASVATVQLPQQDQPVPHGTQCLAMGWGRVGAHDPPAQVLQELNVTVVTFFCRPHNICTFVPRRKAGICFGDSGGPLICDGIIQGIDSFVIWGCATRLFPDFFTRVALYVDWIRSTLRRVEAKGRP	–	–	–	–	25.4 ± 0.57	28.984 ± 0.026	4.55 ± 0.18	4.49 ± 0.19
MAILMLSLQLILLLIPSISHEAHKTSLSSWKHDQDWANVSNMTFSNGKLRVKGIYYRNADICSRHRVTSAGLTLQDLQLWCNLRSVARGQIPSTL [Q6UY13]	–	–	–	–	26.9 ± 1.6	27.81 ± 0.22	4.87 ± 0.78	5.92 ± 0.39
